The assay has as its target UBE2L3 (human, UniProt P68036 1-154). Nature of the assay: ITC. (In general: ITC needs no label: the signal is the heat of the interaction.)

In general, Kd refers to the equilibrium constant for the complex coming apart. A lower Kd goes with higher affinity.

UBE2L3, sequence (P68036 whole entry): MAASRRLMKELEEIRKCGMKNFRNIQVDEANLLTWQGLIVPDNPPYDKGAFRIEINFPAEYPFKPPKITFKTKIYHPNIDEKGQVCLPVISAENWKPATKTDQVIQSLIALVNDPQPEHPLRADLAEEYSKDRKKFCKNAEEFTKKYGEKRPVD

B1: CUL9^ARIH-RBR (domain or fragment)
chain: SPEAVATLASLQLPAGRTMSPQEVEGLMKQTVRQVQETLNLEPDVAQHLLAHSHWGAEQLLQSYSEDPEPLLLAAGLCVHQAQAVPVRPDHCPVCVSPLGCDDDLPSLCCMHYCCKSCWNEYLTTRIEQNLVLNCTCPIADCPAQPTGAFIRAIVSSPEVISKYEKALLRGYVESCSNLTWCTNPQGCDRILCRQGLGCGTTCSKCGWASCFNCSFPEAHYPASCGHMSQWVDDGGYYDGMSVEAQSKHLAKLISKRCPSCQAPIEKNEGCLHMTCAKCNHGFCWRCLKSWKPNHKDYYNCSAMVSKAARQEKRFQDYNERCTFHHQAREFAVNLRNRVSAIHEVPPPRSFTFLNDACQGLEQARKVLAYACVYSFYSQDAEYMDVVEQQTENLELHTNALQILLEETLLRCRDLASSLRLLRADCLSTGMELLRRIQERLLAILQHSAQDFRVGLQSPSVEAWEAKGPNMPGSQPQASSGPEAEEEEEDDEDDVPEWQQDEFDEELDNDSFSYDESENLDQETFFFGDEEEDEDEAYD
Consider B1, for which the dissociation constant Kd came to 12 µM.

For the origin of these results see article PMC11257990 (2024).
